Measured values: article doi:10.1101/379495v1

Substrate: O=[N+]([O-])c1ccc(O[C@@H]2O[C@@H](CO)[C@H](O)[C@H]2O)cc1
Assay: purified protein
Conditions: general assay: sodium acetate buffer pH 5.5, 37 °C

B1: BLLJ_1852 (Bifidobacterium longum subsp. longum JCM 1217) (protein)
chain: DTVPTNNLIAAYDFTTKPSDGKTVANSAPNATLGAAEVQNSADSLWADDALTLSGGAKTGTGDWVKLPSNLLSGKDAATVQLEVKADSSMLNAFHFLWNIGNDSSDTEYFFATLNCGSSRNPLVGLKSGGTETLVQSSSCVAKADQWLSVTATIDGTAAKLYIDGTQVASGTVPAKLSSVKDQSLNTIGRSPWPDNLFKGAVSNFRVYDAALTADQVAAISTADASIHAGELTGSVLNGIIIPTTVDDPFISLPTANGVTWASSDSSVIATDGTVNQPAKGEAAKTVTLTAAVTVRGQTATKEFTVTVNPTTKTAAEQLKEVAAGYVIPSVVRSGDALPAAVNGTTVTVTSTKDVAVEDGKITIDGDEATTGTITVEFSKNGLAGIEPITKAFTVKVLPAAKSATIAAYDRNATGENEANNGDVAYSMHLALQNADGSYTPYNENYGIFFARSPKAQKLNENLDGNDYRSLKDPSLFRMADGTYGVISVRTNRGTATGDSTAKSSVLIATSEDLLTYSEQENSGSIVDLGETNGVNAPYAVYDTASKQYVVGWADDNGVAKYTTFDSLKGSTSKHGSVLYGSVAKSGVLAADGVQGIANFRSGATIAVDEATVKALNTRYGRSENTGTSNLTDITVKKGASIDEVTAQLPKNVDLTYSDGSTGSLPISSWNTEGIDLTKVGDYTVTGTVKQTEYQIPFAEDRADPSVYKWQWTHEADGKEVTETKFLMIASNDIQGDVTWQHGSPHMPFRMADTISGLADEPGNPNALIQSNGYNNKEVSLLKAGDKDSEGNAIMHSFWAPEIHEIDGRLTILFMAGYGNTWSNGKSVYMQLKQDADGHDLDPADPDNWTVPTPIYRNDASLLNGNKQLAATASGGVGMSLDMTYFQDADGRSYYAWQQLGATYIATMDPKDPAHVTSSPVRIVTPEYAWNAAIAEGPNVTLRDGKLYLMFSGSGVGKTYTTGLAVADASGTDLTDPASWTVLNYPIQKSGPFNGEMQLGTGHGMWSEDEDGNQIYVFHAYATKNLGSVNATGRDMFVRRVHWAADGMPVFDMSSSEELASKTVSVTVKVVDDTVTVDKTDLSKALASAKQLRESDYTAASWKAFAAALASAEKVYADENASQKDVDDATAALNKAQAALVKVDGSDSGDGSSDSTKPGDGSSIDAGATGDKTGNKLGLS
With B1 the Km was 9.8 mM and the kcat was 19.2 s⁻¹.
